Results as given in ChEMBL document CHEMBL2074115, “Anthracyclines modulate multidrug resistance protein (MRP) mediated organic anion transport” (Biochim Biophys Acta, 1997).

Columns and labels:
[1] = substrate: N[C@@H](CCC(=O)N[C@@H](CSSC[C@H](NC(=O)CC[C@H](N)C(=O)O)C(=O)NCC(=O)O)C(=O)NCC(=O)O)C(=O)O; experiment: (§1) TP_TRANSPORTER: uptake in membrane vesicles from GLC4/ADR cells; type: functional, cell membranes, GLC-4/ADR, Membrane vesicle
[2] = substrate: N[C@@H](CCC(=O)N[C@H](CSc1ccc([N+](=O)[O-])cc1[N+](=O)[O-])C(=O)NCC(=O)O)C(=O)O; experiment: as §1; type: functional, cell membranes, GLC-4/ADR, Membrane vesicle

B1: Multidrug resistance-associated protein 1 (Homo sapiens) (protein)
chain: MALRGFCSADGSDPLWDWNVTWNTSNPDFTKCFQNTVLVWVPCFYLWACFPFYFLYLSRHDRGYIQMTPLNKTKTALGFLLWIVCWADLFYSFWERSRGIFLAPVFLVSPTLLGITMLLATFLIQLERRKGVQSSGIMLTFWLVALVCALAILRSKIMTALKEDAQVDLFRDITFYVYFSLLLIQLVLSCFSDRSPLFSETIHDPNPCPESSASFLSRITFWWITGLIVRGYRQPLEGSDLWSLNKEDTSEQVVPVLVKNWKKECAKTRKQPVKVVYSSKDPAQPKESSKVDANEEVEALIVKSPQKEWNPSLFKVLYKTFGPYFLMSFFFKAIHDLMMFSGPQILKLLIKFVNDTKAPDWQGYFYTVLLFVTACLQTLVLHQYFHICFVSGMRIKTAVIGAVYRKALVITNSARKSSTVGEIVNLMSVDAQRFMDLATYINMIWSAPLQVILALYLLWLNLGPSVLAGVAVMVLMVPVNAVMAMKTKTYQVAHMKSKDNRIKLMNEILNGIKVLKLYAWELAFKDKVLAIRQEELKVLKKSAYLSAVGTFTWVCTPFLVALCTFAVYVTIDENNILDAQTAFVSLALFNILRFPLNILPMVISSIVQASVSLKRLRIFLSHEELEPDSIERRPVKDGGGTNSITVRNATFTWARSDPPTLNGITFSIPEGALVAVVGQVGCGKSSLLSALLAEMDKVEGHVAIKGSVAYVPQQAWIQNDSLRENILFGCQLEEPYYRSVIQACALLPDLEILPSGDRTEIGEKGVNLSGGQKQRVSLARAVYSNADIYLFDDPLSAVDAHVGKHIFENVIGPKGMLKNKTRILVTHSMSYLPQVDVIIVMSGGKISEMGSYQELLARDGAFAEFLRTYASTEQEQDAEENGVTGVSGPGKEAKQMENGMLVTDSAGKQLQRQLSSSSSYSGDISRHHNSTAELQKAEAKKEETWKLMEADKAQTGQVKLSVYWDYMKAIGLFISFLSIFLFMCNHVSALASNYWLSLWTDDPIVNGTQEHTKVRLSVYGALGISQGIAVFGYSMAVSIGGILASRCLHVDLLHSILRSPMSFFERTPSGNLVNRFSKELDTVDSMIPEVIKMFMGSLFNVIGACIVILLATPIAAIIIPPLGLIYFFVQRFYVASSRQLKRLESVSRSPVYSHFNETLLGVSVIRAFEEQERFIHQSDLKVDENQKAYYPSIVANRWLAVRLECVGNCIVLFAALFAVISRHSLSAGLVGLSVSYSLQVTTYLNWLVRMSSEMETNIVAVERLKEYSETEKEAPWQIQETAPPSSWPQVGRVEFRNYCLRYREDLDFVLRHINVTINGGEKVGIVGRTGAGKSSLTLGLFRINESAEGEIIIDGINIAKIGLHDLRFKITIIPQDPVLFSGSLRMNLDPFSQYSDEEVWTSLELAHLKDFVSALPDKLDHECAEGGENLSVGQRQLVCLARALLRKTKILVLDEATAAVDLETDDLIQSTIRTQFEDCTVLTIAHRLNTIMDYTRVIVLDKGEIQEYGAPSDLLQQRGLFYSMAKDAGLV
- Km [1]: 43 µM
- Km [2]: 1.2 µM
